This note sets out measurements from article PMC4422728.

The target of the experiment is β-amyloid (Aβ) protein from brains of rTg9191 mice (human). Put plainly: SDS-PAGE and Western blot under denaturing conditions; water-soluble fraction of brain extracts (three-step protocol); samples heated at 95°C with SDS and β-mercaptoethanol, 10-20% Tris-Tricine gels, immunoblot for Aβ; mice of 4, 12, 21, 24 and 26 months. A general note: Immunoblotting shows a protein as a band on a membrane.

For orientation: stoichiometry N means the number of molecules, sites or subunits per partner or assembly.

As to “β-amyloid (Aβ) protein from brains of rTg9191 mice (peptide)”, the stoichiometry N was 2.
